According to publication PMC11291975, “Chemotherapy-induced acetylation of ACLY by NAT10 promotes its nuclear accumulation and acetyl-CoA production to drive chemoresistance in hepatocellular carcinoma” (Cell Death & Disease, 2024):

Molecular target: T1, GST-ACLY (UniProt P53396 1-1101)
T1 construct: ATP citrate lyase (ACLY), cloned into pGEX-4T1; also called GST-ACLY protein; source: E. coli BL21 (DE3), purified (Glutathione Sepharose 4B)
T1 sequence (looked up): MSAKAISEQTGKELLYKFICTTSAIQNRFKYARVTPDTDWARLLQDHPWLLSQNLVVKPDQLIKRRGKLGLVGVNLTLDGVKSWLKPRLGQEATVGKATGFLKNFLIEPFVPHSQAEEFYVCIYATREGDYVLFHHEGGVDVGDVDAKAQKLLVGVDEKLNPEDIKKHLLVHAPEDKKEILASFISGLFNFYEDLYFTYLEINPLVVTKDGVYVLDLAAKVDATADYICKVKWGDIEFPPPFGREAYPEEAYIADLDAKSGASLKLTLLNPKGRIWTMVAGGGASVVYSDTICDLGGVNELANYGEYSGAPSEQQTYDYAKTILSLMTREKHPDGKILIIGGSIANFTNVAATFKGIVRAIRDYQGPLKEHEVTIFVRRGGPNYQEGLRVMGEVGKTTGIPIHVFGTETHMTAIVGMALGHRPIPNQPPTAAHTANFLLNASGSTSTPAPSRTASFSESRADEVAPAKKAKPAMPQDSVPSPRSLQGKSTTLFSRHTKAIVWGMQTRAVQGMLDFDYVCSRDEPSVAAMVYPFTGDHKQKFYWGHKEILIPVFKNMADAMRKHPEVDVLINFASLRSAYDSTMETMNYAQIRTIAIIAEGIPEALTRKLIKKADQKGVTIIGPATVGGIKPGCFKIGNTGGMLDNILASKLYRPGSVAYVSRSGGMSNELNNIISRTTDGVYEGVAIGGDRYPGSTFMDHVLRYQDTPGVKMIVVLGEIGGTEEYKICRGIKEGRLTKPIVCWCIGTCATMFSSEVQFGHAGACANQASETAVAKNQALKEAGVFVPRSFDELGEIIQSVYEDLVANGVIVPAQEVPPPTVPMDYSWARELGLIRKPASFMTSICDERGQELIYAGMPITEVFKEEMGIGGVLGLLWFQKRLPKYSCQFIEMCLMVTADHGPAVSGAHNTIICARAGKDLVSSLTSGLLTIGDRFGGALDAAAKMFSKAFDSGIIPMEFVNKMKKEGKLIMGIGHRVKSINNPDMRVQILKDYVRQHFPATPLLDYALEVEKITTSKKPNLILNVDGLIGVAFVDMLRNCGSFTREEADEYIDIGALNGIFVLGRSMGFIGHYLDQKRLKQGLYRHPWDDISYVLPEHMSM
Experiment: pull-down; GST-ACLY or GST-ACLY deletion mutants bound to Glutathione Sepharose 4B, incubated with purified Flag-NAT10; WB with anti-Flag
Settings: both partners purified

B1: Flag-NAT10-His (natural protein, UniProt Q9H0A0 1-1025, looked up)
chain: MHRKKVDNRIRILIENGVAERQRSLFVVVGDRGKDQVVILHHMLSKATVKARPSVLWCYKKELGFSSHRKKRMRQLQKKIKNGTLNIKQDDPFELFIAATNIRYCYYNETHKILGNTFGMCVLQDFEALTPNLLARTVETVEGGGLVVILLRTMNSLKQLYTVTMDVHSRYRTEAHQDVVGRFNERFILSLASCKKCLVIDDQLNILPISSHVATMEALPPQTPDESLGPSDLELRELKESLQDTQPVGVLVDCCKTLDQAKAVLKFIEGISEKTLRSTVALTAARGRGKSAALGLAIAGAVAFGYSNIFVTSPSPDNLHTLFEFVFKGFDALQYQEHLDYEIIQSLNPEFNKAVIRVNVFREHRQTIQYIHPADAVKLGQAELVVIDEAAAIPLPLVKSLLGPYLVFMASTINGYEGTGRSLSLKLIQQLRQQSAQSQVSTTAENKTTTTARLASARTLYEVSLQESIRYAPGDAVEKWLNDLLCLDCLNITRIVSGCPLPEACELYYVNRDTLFCYHKASEVFLQRLMALYVASHYKNSPNDLQMLSDAPAHHLFCLLPPVPPTQNALPEVLAVIQVCLEGEISRQSILNSLSRGKKASGDLIPWTVSEQFQDPDFGGLSGGRVVRIAVHPDYQGMGYGSRALQLLQMYYEGRFPCLEEKVLETPQEIHTVSSEAVSLLEEVITPRKDLPPLLLKLNERPAERLDYLGVSYGLTPRLLKFWKRAGFVPVYLRQTPNDLTGEHSCIMLKTLTDEDEADQGGWLAAFWKDFRRRFLALLSYQFSTFSPSLALNIIQNRNMGKPAQPALSREELEALFLPYDLKRLEMYSRNMVDYHLIMDMIPAISRIYFLNQLGDLALSAAQSALLLGIGLQHKSVDQLEKEIELPSGQLMGLFNRIIRKVVKLFNEVQEKAIEEQMVAAKDVVMEPTMKTLSDDLDEAAKEFQEKHKKEVGKLKSMDLSEYIIRGDDEEWNEVLNKAGPNASIISLKSDKKRKLEAKQEPKQSKKLKNRETKNKKDMKLKRKK
notes: N-acetyltransferase 10 (NAT10), cloned into pFast-Bac1 as Flag-NAT10-His; also called purified Flag-NAT10; source: baculovirus-infected sf9 cells, purified (Ni-NTA agarose)
B1: binds.
